Experimental data as given in article PMC9023281.

Target: Polθ helicase domain (amino acids 1–894), O75417
Assay: SEC; calibrated size exclusion chromatography of purified Polθ-h
Settings: remark: other sources report otherwise

stoichiometry N: 4
B1: Polθ helicase domain (amino acids 1–894), O75417 1-894 (domain or fragment)
chain: MNLLRRSGKRRRSESGSDSFSGSGGDSSASPQFLSGSVLSPPPGLGRCLKAAAAGECKPTVPDYERDKLLLANWGLPKAVLEKYHSFGVKKMFEWQAECLLLGQVLEGKNLVYSAPTSAGKTLVAELLILKRVLEMRKKALFILPFVSVAKEKKYYLQSLFQEVGIKVDGYMGSTSPSRHFSSLDIAVCTIERANGLINRLIEENKMDLLGMVVVDELHMLGDSHRGYLLELLLTKICYITRKSASCQADLASSLSNAVQIVGMSATLPNLELVASWLNAELYHTDFRPVPLLESVKVGNSIYDSSMKLVREFEPMLQVKGDEDHVVSLCYETICDNHSVLLFCPSKKWCEKLADIIAREFYNLHHQAEGLVKPSECPPVILEQKELLEVMDQLRRLPSGLDSVLQKTVPWGVAFHHAGLTFEERDIIEGAFRQGLIRVLAATSTLSSGVNLPARRVIIRTPIFGGRPLDILTYKQMVGRAGRKGVDTVGESILICKNSEKSKGIALLQGSLKPVRSCLQRREGEEVTGSMIRAILEIIVGGVASTSQDMHTYAACTFLAASMKEGKQGIQRNQESVQLGAIEACVMWLLENEFIQSTEASDGTEGKVYHPTHLGSATLSSSLSPADTLDIFADLQRAMKGFVLENDLHILYLVTPMFEDWTTIDWYRFFCLWEKLPTSMKRVAELVGVEEGFLARCVKGKVVARTERQHRQMAIHKRFFTSLVLLDLISEVPLREINQKYGCNRGQIQSLQQSAAVYAGMITVFSNRLGWHNMELLLSQFQKRLTFGIQRELCDLVRVSLLNAQRARVLYASGFHTVADLARANIVEVEVILKNAVPFKSARKAVDEEEEAVEERRNMRTIWVTGRKGLTEREAAALIVEEARMILQQDLVEM
